Measured values as given in patent publication US20240400698A1, “ANTI-CHEMOKIN LIKE RECEPTOR 1 ANTIBODIES AND THEIR THERAPEUTIC APPLICATIONS” (OSE IMMUNOTHERAPEUTICS, priority 2018, published 2024).

Key:
[1] = target: T1, CMKLR1 EL3 loop (SEQ ID No: 18) (Homo sapiens, UniProt Q99788); assay: ELISA binding on CMKLR1 peptide; conditions: OD at 450 nm, FIG. 12, vs isotype control
T1 sequence (Q99788 275-307 limits assumed): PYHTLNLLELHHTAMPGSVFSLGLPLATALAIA
Protocol: FIG. 12. Binding analysis of the anti-CMKLR1 antibody on a CMKLR1 peptide by ELISA. The binding of the 2G1 antibody ( ) on the CMKLR1 EL3 loop (SEQ ID No: 18) was compared to the isotype control antibody (3G8) (x) by measuring the OD at 450 nm by ELISA.
CMKLR1 peptide (273NH2-[…]-COOH305) (SEQ ID No: 18) (5 μg/ml) was coated in borate buffer overnight. Saturation was performed with PBS-Tween 0.1%-Gelatin 0.25% for 2 hours at 37° C. Then, 2G1 or hIgG1 antibodies were added at different concentrations for 2 hours at 37° C. […] The colorimetric reaction was read with TECAN.

[2] = system: Hepa 1.6 cells; assay: Orthotopic hepatocarcinoma (HCC) model, overall survival; conditions: FIG. 22; Hepa 1.6 HCC model; anti-CMKLR1 0.8 mg/kg, anti-PD1 8 mg/kg; followed sixty days
Method: Effect of an anti-CMKLR1 antibody on an Hepatocarcinoma mice model (HCC model). […] Isotype control antibody was used at 0.8 mg/kg three times a week for 2 weeks. Mice response were considered partial (PR) when mice survive few days to 1 month after stop of treatment or complete (CR) when mice survive over 1 month or cured when they survive three times longer than the time necessary to all control mice dye.
Method: Mice were anesthetized with a cocktail of xylazine/ketamine. After a laparotomy, tumoral Hepa 1.6 cells were injected in PBS through the portal vein (2.5·10^6 cells/100 μL) in PBS. The treatment was started 4 days after tumor injection. The anti-CMKLR1 antibody (2G1clone) and the hIgG1 istotype control were injected at 0.8 mg/kg three times per week during 2 weeks. The anti-PD1 monoclonal antibody was injected twice a week during 2 weeks intraperitoneally in PBS (8 mg/kg). Combination anti-CMKLR1 and anti-PD1 antibodies was tested as well (0.8 mg/kg and 8 mg/kg respectively).

[3] = system: MC38 cells; assay: MC38 colon carcinoma model; type: in vivo, mice; conditions: FIG. 9D, 20 μg/injection i.p. for 3 weeks, vs isotype control
Protocol: FIG. 9. […] Two mice models were studied, and animals received isotype control antibody (3G8) (x) or anti-CMKLR1 (2G1) ( ) at 20 μg/injection intraperitoneally for 3 weeks. A-C. Results in the CT26 colon carcinoma model comparing single treatment with p84 (A) and 2G1 (B) with combined therapy with both antibodies (C). D: Results in the MC38 colon carcinoma model.
8-week old C57bl/6J male mice were anesthetized with 3% of isoflurane. Mice were shaved on the flank and MC38 cells (0.5·10^6 cells/mouse) cell lines were injected subcutaneously with an insulinic syringe (30 Gauges) in 50 μL of PBS. Another model was used, in which 8-week old Balb/c male mice were anesthetized with 3% of isoflurane. Mice were shaved on the flank and CT26 cells (1·10^6 cells/mouse) were injected subcutaneously with an insulinic syringe (30 Gauges) in 50 μL of PBS.
The agonistic anti-CMKLR1 antibody (2G1) or an anti-SIRPa antibody (p84-anti-mouse SIRPa from Merck Millipore) (SIRPa is a new checkpoint inhibitor) were injected once a week (20 μg/injection) intraperitoneally for 3 weeks starting at d4 after tumor inoculation alone or combined.

[4] = system: human macrophages M1 or M2; assay: Human monocyte differentiation and polarization, CD200R by FACS and cytokine secretion by ELISA, FIG. 16; type: cell-based; conditions: human cells, 2 μg/ml
Protocol: FIG. 16. Study of the inflammatory cytokine secretion by human macrophages during CMKLR1 activation. After differentiation of human monocytes, cells were incubated in presence of different isotype controls (mIgG4; hIgG4 or hIgG1 at […]); C7 commercial anti-CMKLR1 antibody (2 μg/ml); 2G4 or 2G1 antibodies (2 μg/ml), or other commercial anti-CMKLR1 antibodies (H6 (2 μg/ml), BZ332 (2 μg/ml) or 84939 (2 μg/ml), C15 peptides (10 nM), or RvE1 (10 ng/ml). A. Expression of the CD200R marker measured by FACS. B. IL10 cytokine secretion by M2 cells. C. CCL17 cytokine secretion by M2 cells. D. represents IL12 cytokine secretion by M1 cells. Secretion of IL10, CCL17 and IL12p40 were assessed by ELISA.
Monocytes were collected from PBMC of buffy coat of healthy volunteers and isolated by magnetic separation or by elutriation. Then, monocytes were cultured with different cocktails of cytokines to generate differentiated unpolarized macrophages or polarized macrophages. This protocol allowed to generate polarized differentiated macrophages in order to have pro-(M1) or anti-(M2) inflammatory macrophages in different wells. Monocytes were plated at 0.5·10^6 cells/mL in complete RPMI (RPMI with 10% FBS, 1% glutamine, 1% antibiotics) and 500 μL of the cell suspension was plated per well in a 24-well plate. 100 ng/ml of M-CSF was added with medium for differentiation of the cells. Cells were incubated 5 days and medium was replaced with fresh medium complemented with 100 ng/ml of M-CSF at day 3. For the polarization phases, solution of LPS-IFNg at 100 ng/ml of LPS and 20 ng/ml of IFNg complemented with isotype controls (mIgG1 or hIgG4) (2 μg/ml) or anti-CMKLR1 antibodies (2 μg/ml) (2G1 or 2G4, H6, BZ332 or 84939) or with C15 peptide (10 nM) or RvE1 (10 ng/ml) during 3 days to generate M1 macrophages. M1-IFNg macrophages could also be generated by adding only IFNg (20 ng/ml) in culture medium. […]
Cytokines secretion was detected by ELISA according to the BD manufacturer instructions. […] TMB supplied by BD Bioscience was used as substrate and colorimetric reaction was read with TECAN.

[5] = system: Rag1 knock-out mice, CD45Rb high CD4 T cell transfer colitis; assay: CD45Rb high T-cell transfer chronic colitis mouse model; type: in vivo; conditions: FIG. 21; 1 mg/kg three times a week for 3 weeks from day 32; control mice start to lose weight
Protocol: Weight variation of treated animals was followed up to sixty days. Animals were treated with isotype control hIgG1 (x) or anti-CMKLR1 antibody (=).
Method: CD45Rb^high CD4 T cells were isolated from the spleen of naive mice and sorted on an ARIA FACS after a negative selection of the CD4 T cells by magnetic sorting, then injected intraperitoneally at 0.5·10^6 cells in 100 μL of PBS into 6-weeks old female Rag1 knock-out mice. Anti-CMKLR1 antibody (2G1) or an isotype control were administered from day 32 after the CD45Rb^high CD4 T cell transfer for 3 weeks three times a week at 1 mg/kg. The follow-up of weight was evaluated three times a week and the weight variation was determined over the initial weight. * p<0.05, ** p<0.01.

B1: 2G1: chimeric anti-CMKLR1 antibody, murine variable regions (SEQ ID No: 10 and 17), human IgG1 constant regions; VH-CDR3 variant LI (antibody, V domains shown)
VH: METDTLLLWVLLLWVPGSTGDEVQLVASGGGLVQPGGSLKLSCAASGFTFSSYGMSWVRQTPDRRLELVATINRYGGSTYYPDSVKGRFTISRDNAKNTLYLQMSSLKSEDTAMYYCPRLIYYGNEGDSWGQGTTLTVSS
VL: METDTLLLWVLLLWVPGSTGDQIVLTQSPAIMSASPGEKVTMTCSASSSVSFMHWYQQKSGTSPKRWIYDTTKLTSGVPARFSGSGSGTFYSLTISSMEAEDAATYYCQQWNSKPPLTFGPGTKLELKR
modifications: human IgG1 constant regions
notes: VH-CDR3 variant LI
[1]
  binding to the polypeptide forming the loop EL3 of CMKLR1: able to bind the polypeptide forming the loop EL3 of CMKLR1
[2]
  survival rate: 15%
[3]
  tumor growth: did show an efficacy in the inhibition of the tumor growth
[4]
  CCL17 secretion by M2 type macrophages: able to induce
  IL10 secretion by M2 type macrophages: able to induce
  secretion of the IL12p40 cytokine by M1 type macrophages: able to decrease the secretion
[5]
  weight variation: continue to gain weight
